Laboratory results reported in the supplement of paper PMC10126150.
± gives the standard deviation of the averaged measurements.
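Also: ATP exposure 15 min at 22 °C before imaging.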

These sequences were tested on ATP (assay: switch fluorescence ratio, 500 uM ATP over buffer (Cy3 cluster intensity, sum of 5 cycles each) (fold (ratio)); higher = stronger signal-on switching upon ATP binding; sequences stand for … in TCGTCGGCAGCGTCAGATGTGTATAAGAGACAGTTTTTTTTTTTTTTTTTTTTTTTTT…TC). Details: aptamer strand: ATP DNA aptamer (quencher-CACCTGGGGGAGTATTGCGGAGGAAGG + anchor), 100 nM annealed; ATP concentration: 500 uM.
In short: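 Between each of five buffer/ATP cycles, the flow-cell was stripped with NaOH and re-annealed. Each cycle imaged Cy3-labelled switching-strand clusters, annealed to 100 nM quencher-labelled ATP aptamer on a modified Illumina MiSeq flow-cell, first in selection buffer and then after 15 min with 500 uM ATP at 22 °C. The fluorescence ratio is summed target-cycle over summed buffer-cycle Cy3 intensity per cluster, averaged per switch-domain sequence, with clusters outside 100-1000 RFU excluded.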
AAACGCTGGT showed a switch fluorescence ratio of 1.01 ± 0.0087.
In the case of AAACGGAGGG, the switch fluorescence ratio is reported as 0.996 ± 0.038.
Sequence AAACGGCATC has a switch fluorescence ratio of 1.073 ± 0.0074.
In the case of AAACGGGCGG, the switch fluorescence ratio is reported as 0.996 ± 0.045.
AAACGGGGAG was tested, and the switch fluorescence ratio was 0.991 ± 0.021.
For AAACGGGGAT, the switch fluorescence ratio was 0.992 ± 0.011.
Work on AAACGTAATA yielded a switch fluorescence ratio of 1.31 ± 0.014.
Sequence AAACGTCCT has a switch fluorescence ratio of 1.07 ± 0.012.
Work on AAACTAAAAA yielded a switch fluorescence ratio of 1 ± 0.033.
AAACTAAGTT was tested, and the switch fluorescence ratio was 1.041 ± 0.008.
With AAACTGGGGC the switch fluorescence ratio was 1.12 ± 0.022.
Sequence AAACTGGGGT has a switch fluorescence ratio of 0.999 ± 0.0016.
For AAACTTAAGA, the switch fluorescence ratio was 0.996 ± 0.049.
AAACTTAGC gave a switch fluorescence ratio of 1.03 ± 0.065.
AAAGAAACTC was tested, and the switch fluorescence ratio was 1.47 ± 0.7.
For AAAGAAAGGG, the switch fluorescence ratio was 1 ± 0.029.
AAAGAAATTC gave a switch fluorescence ratio of 1.02 ± 0.068.
Sequence AAAGAATGGT has a switch fluorescence ratio of 0.991 ± 0.054.
With AAAGAATTCG the switch fluorescence ratio was 0.974 ± 0.037.
Work on AAAGACATCT yielded a switch fluorescence ratio of 1.02 ± 0.095.
In the case of AAAGACGACA, the switch fluorescence ratio is reported as 1.27 ± 0.29.
In the case of AAAGAGGAGG, the switch fluorescence ratio is reported as 0.984 ± 0.036.
In the case of AAAGAGGCTT, the switch fluorescence ratio is reported as 0.983 ± 0.039.
Work on AAAGAGGTTC yielded a switch fluorescence ratio of 1.04 ± 0.068.
AAAGATATCT was tested, and the switch fluorescence ratio was 0.979 ± 0.022.
AAAGATTTTT gave a switch fluorescence ratio of 0.9851 ± 0.0092.
In the case of AAAGCCGATG, the switch fluorescence ratio is reported as 1 ± 0.012.
With AAAGCCGGTA the switch fluorescence ratio was 1.01 ± 0.084.
With AAAGCGGGTC the switch fluorescence ratio was 1.04 ± 0.015.
AAAGCGGTTA was tested, and the switch fluorescence ratio was 1.007 ± 0.006.
For AAAGCGTGCG, the switch fluorescence ratio was 0.964 ± 0.022.
In the case of AAAGCTGAAT, the switch fluorescence ratio is reported as 0.992 ± 0.0057.
AAAGCTGTAG was tested, and the switch fluorescence ratio was 1.02 ± 0.038.
In the case of AAAGCTGTTT, the switch fluorescence ratio is reported as 1.02 ± 0.014.
For AAAGGAACTC, the switch fluorescence ratio was 0.999 ± 0.092.
AAAGGACACA was tested, and the switch fluorescence ratio was 1.061 ± 0.01.
Work on AAAGGATGTT yielded a switch fluorescence ratio of 0.995 ± 0.041.
AAAGGCCCCC was tested, and the switch fluorescence ratio was 1.0047 ± 0.00068.
AAAGGCGAGG showed a switch fluorescence ratio of 0.957 ± 0.015.
AAAGGCTGAA showed a switch fluorescence ratio of 1.03 ± 0.048.
In the case of AAAGGCTGGG, the switch fluorescence ratio is reported as 1.04 ± 0.087.
Sequence AAAGGGAAAC has a switch fluorescence ratio of 1.2 ± 0.28.
In the case of AAAGGGAAGG, the switch fluorescence ratio is reported as 1.01 ± 0.018.
AAAGGGAAGT gave a switch fluorescence ratio of 0.983 ± 0.048.
For AAAGGGAAT, the switch fluorescence ratio was 1.02 ± 0.021.
With AAAGGGCATG the switch fluorescence ratio was 1 ± 0.011.
AAAGGGGAGG was tested, and the switch fluorescence ratio was 1.01 ± 0.033.
AAAGGGGGAA was tested, and the switch fluorescence ratio was 0.998 ± 0.026.
In the case of AAAGGGGGT, the switch fluorescence ratio is reported as 1.01 ± 0.026.
AAAGGGGGTG gave a switch fluorescence ratio of 1.02 ± 0.047.
Work on AAAGGGGTAG yielded a switch fluorescence ratio of 0.9975 ± 0.0069.
In the case of AAAGGGTACT, the switch fluorescence ratio is reported as 1.08 ± 0.064.
For AAAGGGTTGT, the switch fluorescence ratio was 1.009 ± 0.009.
AAAGGTGTTG was tested, and the switch fluorescence ratio was 1.16 ± 0.23.
Sequence AAAGGTTAAG has a switch fluorescence ratio of 0.991 ± 0.015.
In the case of AAAGGTTAGG, the switch fluorescence ratio is reported as 0.958 ± 0.029.
AAAGGTTTCG showed a switch fluorescence ratio of 0.989 ± 0.015.
With AAAGGTTTTG the switch fluorescence ratio was 1 ± 0.02.
With AAAGTAATGG the switch fluorescence ratio was 1.04 ± 0.022.
AAAGTAGAGG was tested, and the switch fluorescence ratio was 0.969 ± 0.029.
With AAAGTAGGCT the switch fluorescence ratio was 1.01 ± 0.053.
Work on AAAGTATGCT yielded a switch fluorescence ratio of 0.9898 ± 0.0015.
For AAAGTATTAA, the switch fluorescence ratio was 1.014 ± 0.0026.
AAAGTCAAGG showed a switch fluorescence ratio of 0.9933 ± 0.0029.
In the case of AAAGTCTAGC, the switch fluorescence ratio is reported as 1.01 ± 0.019.
For AAAGTGAGGG, the switch fluorescence ratio was 0.986 ± 0.013.
With AAAGTGATAT the switch fluorescence ratio was 1.01 ± 0.028.
With AAAGTGCTCT the switch fluorescence ratio was 0.981 ± 0.038.
AAAGTGTACG gave a switch fluorescence ratio of 0.999 ± 0.03.
Sequence AAAGTTAAGT has a switch fluorescence ratio of 0.976 ± 0.0036.
For AAAGTTAGGG, the switch fluorescence ratio was 1.01 ± 0.038.
Work on AAAGTTGCGG yielded a switch fluorescence ratio of 1.016 ± 0.0045.
With AAAGTTGGAT the switch fluorescence ratio was 0.977 ± 0.012.
In the case of AAAGTTTCGC, the switch fluorescence ratio is reported as 1 ± 0.019.
AAAGTTTGAC was tested, and the switch fluorescence ratio was 1 ± 0.035.
AAATAAAATG showed a switch fluorescence ratio of 0.932 ± 0.11.
With AAATAAAATT the switch fluorescence ratio was 0.982 ± 0.03.
